B1: Mothers against decapentaplegic homolog 4 (Homo sapiens), Q13485 (parent)
chain: MDNMSITNTPTSNDACLSIVHSLMCHRQGGESETFAKRAIESLVKKLKEKKDELDSLITAITTNGAHPSKCVTIQRTLDGRLQVAGRKGFPHVIYARLWRWPDLHKNELKHVKYCQYAFDLKCDSVCVNPYHYERVVSPGIDLSGLTLQSNAPSSMMVKDEYVHDFEGQPSLSTEGHSIQTIQHPPSNRASTETYSTPALLAPSESNATSTANFPNIPVASTSQPASILGGSHSEGLLQIASGPQPGQQQNGFTGQPATYHHNSTTTWTGSRTAPYTPNLPHHQNGHLQHHPPMPPHPGHYWPVHNELAFQPPISNHPAPEYWCSIAYFEMDVQVGETFKVPSSCPIVTVDGYVDPSGGDRFCLGQLSNVHRTEAIERARLHIGKGVQLECKGEGDVWVRCLSDHAVFVQSYYLDREAGRAPGDAVHKIYPSAYIKVFDLRQCHRQMQQQAATAQAAAAAQAAAVAGNIPGPGSVGGIAPAISLSAAAGIGVDDLRRLCILRMSFVKGWGPDYPRQSIKETPCWIEIHLHRALQLLDEVLHTMPIADPQPLD

Variants of: B1
Settings: with maga6_human MAGEA6, P43360

Variant | effect of a mutation on the interaction
R361H | with no effect

Variants of: B1
Settings: with mp2k7_human MAP2K7, O14733
Sequence of mp2k7_human MAP2K7, O14733 (O14733 whole entry): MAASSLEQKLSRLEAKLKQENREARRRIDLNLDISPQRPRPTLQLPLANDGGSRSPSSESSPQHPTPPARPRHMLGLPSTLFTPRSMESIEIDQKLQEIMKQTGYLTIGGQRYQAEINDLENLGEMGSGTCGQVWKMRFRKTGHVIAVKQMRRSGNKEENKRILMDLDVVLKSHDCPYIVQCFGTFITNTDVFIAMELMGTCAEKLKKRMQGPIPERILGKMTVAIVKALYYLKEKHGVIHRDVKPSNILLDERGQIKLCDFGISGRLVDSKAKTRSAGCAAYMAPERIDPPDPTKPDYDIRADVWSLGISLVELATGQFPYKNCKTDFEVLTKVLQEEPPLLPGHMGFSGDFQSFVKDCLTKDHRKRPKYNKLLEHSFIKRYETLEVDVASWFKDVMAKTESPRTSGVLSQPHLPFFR

Variant | effect of a mutation on the interaction
R361H | with no effect

Variants of: B1
Settings: with m3k1_human MAP3K1, Q13233

Variant | effect of a mutation on the interaction
R361H | with no effect

Variants of: B1
Settings: with mk10_human MAPK10, P53779

Variant | effect of a mutation on the interaction
R361H | with no effect

Variants of: B1
Settings: with mk14_human MAPK14, Q16539

Variant | effect of a mutation on the interaction
R361H | with no effect

Variants of: B1
Settings: with mk03_human MAPK3, P27361

Variant | effect of a mutation on the interaction
R361H | with no effect

Variants of: B1
Settings: with mk04_human MAPK4, P31152

Variant | effect of a mutation on the interaction
R361H | with no effect

Variants of: B1
Settings: with mk06_human MAPK6, Q16659

Variant | effect of a mutation on the interaction
R361H | with no effect

Variants of: B1
Settings: with mk07_human MAPK7, Q13164

Variant | effect of a mutation on the interaction
R361H | with no effect

Variants of: B1
Settings: with mcl1_human MCL1, Q07820

Variant | effect of a mutation on the interaction
R361H | with no effect

Variants of: B1
Settings: with myc_human MYC

Variant | effect of a mutation on the interaction
R361H | with no effect

Variants of: B1
Settings: with nf1_human NF1, P21359

Variant | effect of a mutation on the interaction
R361H | with no effect

Variants of: B1
Settings: with merl_human NF2, P35240

Variant | effect of a mutation on the interaction
R361H | with no effect

Variants of: B1
Settings: with nfic_human NFIC

Variant | effect of a mutation on the interaction
R361H | with no effect

Variants of: B1
Settings: with nsd3_human NSD3, Q9BZ95

Variant | effect of a mutation on the interaction
R361H | with no effect

Variants of: B1
Settings: with pak3_human PAK3, O75914
Sequence of pak3_human PAK3, O75914 (O75914 whole entry, looked up): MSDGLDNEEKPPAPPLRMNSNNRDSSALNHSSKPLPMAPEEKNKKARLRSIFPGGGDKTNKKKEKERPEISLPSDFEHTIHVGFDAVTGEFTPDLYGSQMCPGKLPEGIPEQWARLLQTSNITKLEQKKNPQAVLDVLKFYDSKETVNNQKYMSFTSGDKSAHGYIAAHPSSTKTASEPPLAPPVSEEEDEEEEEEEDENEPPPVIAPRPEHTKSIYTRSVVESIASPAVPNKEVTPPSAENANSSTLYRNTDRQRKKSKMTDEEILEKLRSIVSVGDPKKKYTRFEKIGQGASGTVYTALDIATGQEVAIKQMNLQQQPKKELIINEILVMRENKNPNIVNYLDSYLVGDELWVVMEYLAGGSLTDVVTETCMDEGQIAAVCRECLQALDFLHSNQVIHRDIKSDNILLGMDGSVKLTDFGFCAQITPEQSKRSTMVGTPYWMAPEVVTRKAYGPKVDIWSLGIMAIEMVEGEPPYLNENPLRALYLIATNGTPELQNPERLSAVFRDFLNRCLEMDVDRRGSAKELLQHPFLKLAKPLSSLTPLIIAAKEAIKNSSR

Variant | effect of a mutation on the interaction
R361H | with no effect

Variants of: B1
Settings: with pax5_human PAX5, Q02548

Variant | effect of a mutation on the interaction
R361H | with no effect

Variants of: B1
Settings: with pax9_human PAX9, P55771
Sequence of pax9_human PAX9, P55771 (P55771 whole entry): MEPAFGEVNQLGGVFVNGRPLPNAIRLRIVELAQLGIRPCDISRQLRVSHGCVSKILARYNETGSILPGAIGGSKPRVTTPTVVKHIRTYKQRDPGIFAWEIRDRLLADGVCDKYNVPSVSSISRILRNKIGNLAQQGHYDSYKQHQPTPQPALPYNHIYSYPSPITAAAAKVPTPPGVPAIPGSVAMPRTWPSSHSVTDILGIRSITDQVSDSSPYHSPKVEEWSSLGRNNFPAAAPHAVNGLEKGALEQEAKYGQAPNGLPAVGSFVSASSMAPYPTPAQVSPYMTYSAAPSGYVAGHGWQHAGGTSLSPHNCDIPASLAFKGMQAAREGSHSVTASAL

Variant | effect of a mutation on the interaction
R361H | with no effect

Variants of: B1
Settings: with pcbp1_human PCBP1, Q15365

Variant | effect of a mutation on the interaction
R361H | with no effect

Variants of: B1
Settings: with pgfra_human PDGFRA

Variant | effect of a mutation on the interaction
R361H | with no effect

Variants of: B1
Settings: with pgfrb_human PDGFRB

Variant | effect of a mutation on the interaction
R361H | with no effect

Variants of: B1
Settings: with pdk1_human PDK1, Q15118

Variant | effect of a mutation on the interaction
R361H | with no effect

Variants of: B1
Settings: with PIK3C2B

Variant | effect of a mutation on the interaction
R361H | with no effect

Variants of: B1
Settings: with pk3c3_human PIK3C3, Q8NEB9

Variant | effect of a mutation on the interaction
R361H | with no effect

Variants of: B1
Settings: with pk3ca_human PIK3CA

Variant | effect of a mutation on the interaction
R361H | with no effect

Variants of: B1
Settings: with pk3cg_human PIK3CG

Variant | effect of a mutation on the interaction
R361H | with no effect

Variants of: B1
Settings: with p85a_human PIK3R1, P27986

Variant | effect of a mutation on the interaction
R361H | with no effect

Variants of: B1
Settings: with p85b_human PIK3R2, O00459
Sequence of p85b_human PIK3R2, O00459 (O00459 whole entry): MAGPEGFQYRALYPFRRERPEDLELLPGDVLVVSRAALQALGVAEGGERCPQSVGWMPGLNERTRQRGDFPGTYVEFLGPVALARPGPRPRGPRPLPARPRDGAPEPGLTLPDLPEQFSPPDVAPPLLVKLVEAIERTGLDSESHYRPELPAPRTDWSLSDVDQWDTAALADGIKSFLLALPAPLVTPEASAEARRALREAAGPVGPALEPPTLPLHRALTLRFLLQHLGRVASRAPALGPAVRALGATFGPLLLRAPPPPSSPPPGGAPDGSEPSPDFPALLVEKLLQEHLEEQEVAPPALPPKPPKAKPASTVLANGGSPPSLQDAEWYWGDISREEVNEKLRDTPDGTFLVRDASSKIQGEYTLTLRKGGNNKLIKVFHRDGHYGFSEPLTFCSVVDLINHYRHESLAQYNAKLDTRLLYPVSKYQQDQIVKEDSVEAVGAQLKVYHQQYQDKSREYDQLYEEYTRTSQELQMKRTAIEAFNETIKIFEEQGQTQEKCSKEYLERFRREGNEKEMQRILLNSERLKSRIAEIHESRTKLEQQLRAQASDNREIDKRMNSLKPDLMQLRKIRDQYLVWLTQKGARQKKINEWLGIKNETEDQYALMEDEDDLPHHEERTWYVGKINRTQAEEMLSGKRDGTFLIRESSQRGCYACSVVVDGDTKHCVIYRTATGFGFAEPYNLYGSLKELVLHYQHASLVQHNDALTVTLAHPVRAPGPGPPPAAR

Variant | effect of a mutation on the interaction
R361H | with no effect

Variants of: B1
Settings: with dpod1_human POLD1, P28340
Sequence of dpod1_human POLD1, P28340 (P28340 whole entry): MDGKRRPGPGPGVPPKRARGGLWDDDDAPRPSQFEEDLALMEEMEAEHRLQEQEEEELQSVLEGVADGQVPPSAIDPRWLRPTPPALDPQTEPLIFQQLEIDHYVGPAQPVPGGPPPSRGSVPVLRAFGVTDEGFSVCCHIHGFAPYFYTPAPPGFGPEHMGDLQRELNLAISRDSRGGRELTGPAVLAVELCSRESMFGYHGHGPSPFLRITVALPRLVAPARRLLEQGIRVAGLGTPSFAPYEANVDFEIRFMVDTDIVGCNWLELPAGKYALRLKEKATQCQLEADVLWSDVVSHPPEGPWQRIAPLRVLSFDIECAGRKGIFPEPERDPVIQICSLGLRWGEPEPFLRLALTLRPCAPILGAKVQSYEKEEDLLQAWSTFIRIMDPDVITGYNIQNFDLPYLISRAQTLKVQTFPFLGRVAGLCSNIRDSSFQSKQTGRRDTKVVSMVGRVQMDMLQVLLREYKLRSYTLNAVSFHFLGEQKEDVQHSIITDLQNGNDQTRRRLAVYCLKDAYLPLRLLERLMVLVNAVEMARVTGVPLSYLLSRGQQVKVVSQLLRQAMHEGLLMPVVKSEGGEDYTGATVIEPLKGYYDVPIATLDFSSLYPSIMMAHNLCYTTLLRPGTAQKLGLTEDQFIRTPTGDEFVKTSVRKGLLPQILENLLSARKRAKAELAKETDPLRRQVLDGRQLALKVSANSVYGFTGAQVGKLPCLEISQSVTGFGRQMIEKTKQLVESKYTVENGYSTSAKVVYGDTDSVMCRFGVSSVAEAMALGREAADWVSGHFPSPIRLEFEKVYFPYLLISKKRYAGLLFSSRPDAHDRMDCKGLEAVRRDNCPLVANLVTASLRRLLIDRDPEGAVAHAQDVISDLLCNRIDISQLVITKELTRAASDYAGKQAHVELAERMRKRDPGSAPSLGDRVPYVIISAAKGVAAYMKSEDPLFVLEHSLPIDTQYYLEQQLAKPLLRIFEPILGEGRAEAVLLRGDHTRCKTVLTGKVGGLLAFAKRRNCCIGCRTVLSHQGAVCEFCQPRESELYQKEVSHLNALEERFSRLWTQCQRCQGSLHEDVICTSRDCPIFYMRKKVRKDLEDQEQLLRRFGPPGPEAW

Variant | effect of a mutation on the interaction
R361H | with no effect

Variants of: B1
Settings: with dpoe1_human POLE

Variant | effect of a mutation on the interaction
R361H | with no effect

Variants of: B1
Settings: with lipa1_human PPFIA1, Q13136

Variant | effect of a mutation on the interaction
R361H | with no effect

Variants of: B1
Settings: with 2aaa_human PPP2R1A

Variant | effect of a mutation on the interaction
R361H | with no effect

Variants of: B1
Settings: with prdm1_human PRDM1, O75626

Variant | effect of a mutation on the interaction
R361H | with no effect

Variants of: B1
Settings: with aapk2_human PRKAA2, P54646

Variant | effect of a mutation on the interaction
R361H | with no effect

Variants of: B1
Settings: with prss8_human PRSS8, Q16651
Sequence of prss8_human PRSS8, Q16651 (Q16651 whole entry, looked up): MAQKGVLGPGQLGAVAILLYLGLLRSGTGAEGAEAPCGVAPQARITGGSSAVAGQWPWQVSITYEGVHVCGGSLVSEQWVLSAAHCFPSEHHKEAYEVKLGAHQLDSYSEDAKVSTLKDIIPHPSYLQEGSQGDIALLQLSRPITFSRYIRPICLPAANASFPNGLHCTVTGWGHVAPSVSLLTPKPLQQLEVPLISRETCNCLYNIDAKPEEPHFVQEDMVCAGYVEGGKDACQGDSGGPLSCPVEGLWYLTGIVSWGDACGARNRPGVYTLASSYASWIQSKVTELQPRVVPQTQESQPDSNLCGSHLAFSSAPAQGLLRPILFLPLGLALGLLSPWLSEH

Variant | effect of a mutation on the interaction
R361H | with no effect

Variants of: B1
Settings: with ptk6_human PTK6, Q13882

Variant | effect of a mutation on the interaction
R361H | with no effect

Variants of: B1
Settings: with tf65_human RELA

Variant | effect of a mutation on the interaction
R361H | with no effect

Variants of: B1
Settings: with rnf43_human RNF43, Q68DV7

Variant | effect of a mutation on the interaction
R361H | with no effect

Variants of: B1
Settings: with ros1_human ROS1, P08922

Variant | effect of a mutation on the interaction
R361H | with no effect

Variants of: B1
Settings: with rl5_human RPL5, P46777

Variant | effect of a mutation on the interaction
R361H | with no effect

Variants of: B1
Settings: with runx1_human RUNX1, Q01196
Sequence of runx1_human RUNX1, Q01196 (Q01196 whole entry): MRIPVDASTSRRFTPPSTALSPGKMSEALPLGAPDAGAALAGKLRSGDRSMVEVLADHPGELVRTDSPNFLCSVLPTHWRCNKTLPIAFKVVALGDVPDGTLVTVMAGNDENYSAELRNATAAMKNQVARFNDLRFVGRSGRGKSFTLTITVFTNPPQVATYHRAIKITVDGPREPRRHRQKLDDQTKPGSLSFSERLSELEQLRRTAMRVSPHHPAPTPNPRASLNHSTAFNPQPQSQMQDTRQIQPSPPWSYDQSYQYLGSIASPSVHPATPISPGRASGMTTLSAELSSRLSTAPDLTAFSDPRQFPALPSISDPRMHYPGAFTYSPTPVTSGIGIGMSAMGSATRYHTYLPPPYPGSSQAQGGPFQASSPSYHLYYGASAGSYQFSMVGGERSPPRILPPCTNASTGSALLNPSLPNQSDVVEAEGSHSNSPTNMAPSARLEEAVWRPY

Variant | effect of a mutation on the interaction
R361H | with no effect

Variants of: B1
Settings: with ruvb1_human RUVBL1, Q9Y265
Sequence of ruvb1_human RUVBL1, Q9Y265 (Q9Y265 whole entry): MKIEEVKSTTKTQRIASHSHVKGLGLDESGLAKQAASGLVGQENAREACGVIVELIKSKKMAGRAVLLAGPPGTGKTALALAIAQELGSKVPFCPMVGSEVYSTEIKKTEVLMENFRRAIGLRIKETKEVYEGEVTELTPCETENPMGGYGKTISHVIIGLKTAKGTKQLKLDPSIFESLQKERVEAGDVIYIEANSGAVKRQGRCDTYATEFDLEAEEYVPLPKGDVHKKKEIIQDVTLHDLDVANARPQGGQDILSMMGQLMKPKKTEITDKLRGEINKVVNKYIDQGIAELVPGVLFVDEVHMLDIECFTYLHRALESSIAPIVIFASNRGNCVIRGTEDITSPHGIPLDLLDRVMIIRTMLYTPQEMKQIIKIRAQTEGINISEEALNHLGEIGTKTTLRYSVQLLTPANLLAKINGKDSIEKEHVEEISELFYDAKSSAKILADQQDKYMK

Variant | effect of a mutation on the interaction
R361H | with no effect

Variants of: B1
Settings: with rxra_human RXRA

Variant | effect of a mutation on the interaction
R361H | with no effect

Variants of: B1
Settings: with sdha_human SDHA

Variant | effect of a mutation on the interaction
R361H | with no effect

Variants of: B1
Settings: with setb1_human SETDB1, Q15047

Variant | effect of a mutation on the interaction
R361H | with no effect

Variants of: B1
Settings: with sf3b1_human SF3B1, O75533

Variant | effect of a mutation on the interaction
R361H | with no effect

Variants of: B1
Settings: with skp2_human SKP2, Q13309

Variant | effect of a mutation on the interaction
R361H | with no effect

Variants of: B1
Settings: with smad1_human SMAD1, Q15797

Variant | effect of a mutation on the interaction
R361H | with no effect

Variants of: B1
Settings: with smad2_human SMAD2, Q15796

Variant | effect of a mutation on the interaction
R361H | with no effect

Variants of: B1
Settings: with smad3_human SMAD3, P84022
Sequence of smad3_human SMAD3, P84022 (P84022 whole entry, looked up): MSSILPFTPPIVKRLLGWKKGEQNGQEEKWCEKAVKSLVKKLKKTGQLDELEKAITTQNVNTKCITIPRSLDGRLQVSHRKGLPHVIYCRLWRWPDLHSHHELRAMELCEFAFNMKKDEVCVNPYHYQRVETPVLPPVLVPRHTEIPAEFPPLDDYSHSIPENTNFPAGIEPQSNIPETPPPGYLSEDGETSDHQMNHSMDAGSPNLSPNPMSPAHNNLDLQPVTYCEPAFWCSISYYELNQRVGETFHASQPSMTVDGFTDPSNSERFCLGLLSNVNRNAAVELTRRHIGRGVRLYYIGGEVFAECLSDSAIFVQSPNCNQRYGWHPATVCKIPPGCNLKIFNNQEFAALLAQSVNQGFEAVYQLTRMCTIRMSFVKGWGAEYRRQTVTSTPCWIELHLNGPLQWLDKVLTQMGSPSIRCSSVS

Variant | effect of a mutation on the interaction
R361H | with no effect

Variants of: B1
Settings: with smca4_human SMARCA4, P51532

Variant | effect of a mutation on the interaction
R361H | with no effect

Variants of: B1
Settings: with snf5_human SMARCB1, Q12824

Variant | effect of a mutation on the interaction
R361H | with no effect

Variants of: B1
Settings: with smo_human SMO

Variant | effect of a mutation on the interaction
R361H | with no effect

Variants of: B1
Settings: with sox10_human SOX10, P56693

Variant | effect of a mutation on the interaction
R361H | with no effect

Variants of: B1
Settings: with sox2_human SOX2, P48431

Variant | effect of a mutation on the interaction
R361H | with no effect

Variants of: B1
Settings: with sox3_human SOX3, P41225

Variant | effect of a mutation on the interaction
R361H | with no effect

Variants of: B1
Settings: with sox4_human SOX4, Q06945

Variant | effect of a mutation on the interaction
R361H | with no effect

Variants of: B1
Settings: with sox9_human SOX9, P48436

Variant | effect of a mutation on the interaction
R361H | with no effect

Variants of: B1
Settings: with spop_human SPOP

Variant | effect of a mutation on the interaction
R361H | with no effect

Variants of: B1
Settings: with src_human SRC

Variant | effect of a mutation on the interaction
R361H | with no effect

Variants of: B1
Settings: with stat3_human STAT3, P40763

Variant | effect of a mutation on the interaction
R361H | with no effect

Variants of: B1
Settings: with stk38_human STK38, Q15208

Variant | effect of a mutation on the interaction
R361H | with no effect

Variants of: B1
Settings: with ksyk_human SYK

Variant | effect of a mutation on the interaction
R361H | with no effect

Variants of: B1
Settings: with eloc_human ELOC

Variant | effect of a mutation on the interaction
R361H | with no effect

Variants of: B1
Settings: with tfe2_human TCF3, P15923

Variant | effect of a mutation on the interaction
R361H | with no effect

Variants of: B1
Settings: with tead1_human TEAD1, P28347

Variant | effect of a mutation on the interaction
R361H | with no effect

Variants of: B1
Settings: with tead2_human TEAD2, Q15562

Variant | effect of a mutation on the interaction
R361H | with no effect

Variants of: B1
Settings: with tead3_human TEAD3, Q99594

Variant | effect of a mutation on the interaction
R361H | with no effect

Variants of: B1
Settings: with tgfr2_human TGFBR2, P37173

Variant | effect of a mutation on the interaction
R361H | with no effect

Variants of: B1
Settings: with tnr14_human TNFRSF14, Q92956

Variant | effect of a mutation on the interaction
R361H | with no effect

Variants of: B1
Settings: with tpx2_human TPX2, Q9ULW0

Variant | effect of a mutation on the interaction
R361H | with no effect

Variants of: B1
Settings: with trrap_human TRRAP

Variant | effect of a mutation on the interaction
R361H | with no effect

Variants of: B1
Settings: with tsc2_human TSC2, P49815

Variant | effect of a mutation on the interaction
R361H | with no effect

Variants of: B1
Settings: with tshr_human TSHR

Variant | effect of a mutation on the interaction
R361H | with no effect

Variants of: B1
Settings: with vhl_human VHL

Variant | effect of a mutation on the interaction
R361H | with no effect

Variants of: B1
Settings: with wt1_human WT1, P19544

Variant | effect of a mutation on the interaction
R361H | with no effect

Variants of: B1
Settings: with wwtr1_human WWTR1, Q9GZV5

Variant | effect of a mutation on the interaction
R361H | with no effect

Variants of: B1
Settings: with xpo1_human XPO1, O14980

Variant | effect of a mutation on the interaction
R361H | with no effect

Variants of: B1
Settings: with 1433b_human YWHAB

Variant | effect of a mutation on the interaction
R361H | with no effect

Variants of: B1
Settings: with 1433e_human YWHAE

Variant | effect of a mutation on the interaction
R361H | with no effect

Variants of: B1
Settings: with 1433z_human YWHAZ

Variant | effect of a mutation on the interaction
R361H | with no effect

Variants of: B1
Settings: with smad3_human SMAD3, P84022
Remark: another data set of the same source

Variant | effect of a mutation on the interaction
R361H | decreasing interaction strength

— IntAct's records for PubMed 35512704
